Source: IntAct's records for PubMed 22615398

B1: Geminin (Homo sapiens), O75496 (parent)
chain: MNPSMKQKQEEIKENIKNSSVPRRTLKMIQPSASGSLVGRENELSAGLSKRKHRNDHLTSTTSSPGVIVPESSENKNLGGVTQESFDLMIKENPSSQYWKEVAEKRRKALYEALKENEKLHKEIEQKDNEIARLKKENKELAEVAEHVQYMAELIERLNGEPLDNFESLDNQEFDSEEETVEDSLVEDSEIGTCAEGTVSSSTDAKPCI

Variants of: B1
Conditions: with hxc9_human HOXC9, P31274
Chain of hxc9_human HOXC9, P31274 (P31274 whole entry): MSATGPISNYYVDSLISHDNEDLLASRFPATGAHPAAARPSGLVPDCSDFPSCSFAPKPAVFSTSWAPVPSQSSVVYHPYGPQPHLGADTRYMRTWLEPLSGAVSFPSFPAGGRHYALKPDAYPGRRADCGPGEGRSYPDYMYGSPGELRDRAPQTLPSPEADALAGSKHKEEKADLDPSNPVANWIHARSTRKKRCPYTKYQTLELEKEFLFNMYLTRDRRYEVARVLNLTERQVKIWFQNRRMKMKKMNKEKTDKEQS

effect of a mutation on the interaction | Variant
increasing interaction strength | MNPSMKQKQEEIKENIKNSSVPRRTLKMIQPSASGSLVGRENELSAGLSKRKHRNDHLTSTTSSPGVIVPESSENKNLGGVTQESFDLMIKENPSSQYWKEVAEKRRKALYEALKENEKLHKEIEQKDNEIARLKKENKELAEVAEHVQYMAELIERLNGEPLDNFESLDNQEFDSEEETVEDELVEDSEIGTCAEGTVSSSTDAKPCI [S184E]
decreasing interaction strength | MNPSMKQKQEEIKENIKNSSVPRRTLKMIQPSASGSLVGRENELSAGLSKRKHRNDHLTSTTSSPGVIVPESSENKNLGGVTQESFDLMIKENPSSQYWKEVAEKRRKALYEALKENEKLHKEIEQKDNEIARLKKENKELAEVAEHVQYMAELIERLNGEPLDNFESLDNQEFDSEEETVEDSLAQNSEIGTCAEGTVSSSTDAKPCI [V186A;E187Q;D188N]

Continued, variant first:

Variant | effect of a mutation on the interaction
MNPSMKQKQEEIKENIKNSSVPRRTLKMIQPSASGSLVGRENELSAGLSKRKHRNDHLTSTTSSPGVIVPESSENKNLGGVTQESFDLMIKENPSSQYWKEVAEKRRKALYEALKENEKLHKEIEQKDNEIARLKKENKELAEVAEHVQYMAELIERLNGEPLDNFESLDNQEFDSQQQTVQDSLVQNSEIGTCAEGTVSSSTDAKPCI [E177Q;E178Q;E179Q;E182Q;E187Q;D188N] | decreasing interaction strength
MNPSMKQKQEEIKENIKNSSVPRRTLKMIQPSASGSLVGRENELSAGLSKRKHRNDHLTSTTSSPGVIVPESSENKNLGGVTQESFDLMIKENPSSQYWKEVAEKRRKALYEALKENEKLHKEIEQKDNEIARLKKENKELAEVAEHVQYMAELIERLNGEPLDNFESLDNQEFDSEEETAQNSLVEDSEIGTCAEGTVSSSTDAKPCI [V181A;E182Q;D183N] | decreasing interaction strength
MNPSMKQKQEEIKENIKNSSVPRRTLKMIQPSASGSLVGRENELSAGLSKRKHRNDHLTSTTSSPGVIVPESSENKNLGGVTQESFDLMIKENPSSQYWKEVAEKRRKALYEALKENEKLHKEIEQKDNEIARLKKENKELAEVAEHVQYMAELIERLNGEPLDNFESLDNQEFDSQQQTVEDSLVEDSEIGTCAEGTVSSSTDAKPCI [E177Q;E178Q;E179Q] | decreasing interaction strength
